Test results: patent publication US20220332804A1 (CSL INNOVATION, published 2022)
Numbering of substitutions follows the chain as printed.

What was measured:
human complement C2 = target: T1, human complement C2 (human, UniProt P06681 21-752); experiment: SPR, mAb captured, huC2 analyte, neutral pH; pH 7
T1 construct: Recombinant full-length human C2 with C-terminal 8x His tag, purified from Expi293F supernatant; also called human C2; huC2
T1 sequence: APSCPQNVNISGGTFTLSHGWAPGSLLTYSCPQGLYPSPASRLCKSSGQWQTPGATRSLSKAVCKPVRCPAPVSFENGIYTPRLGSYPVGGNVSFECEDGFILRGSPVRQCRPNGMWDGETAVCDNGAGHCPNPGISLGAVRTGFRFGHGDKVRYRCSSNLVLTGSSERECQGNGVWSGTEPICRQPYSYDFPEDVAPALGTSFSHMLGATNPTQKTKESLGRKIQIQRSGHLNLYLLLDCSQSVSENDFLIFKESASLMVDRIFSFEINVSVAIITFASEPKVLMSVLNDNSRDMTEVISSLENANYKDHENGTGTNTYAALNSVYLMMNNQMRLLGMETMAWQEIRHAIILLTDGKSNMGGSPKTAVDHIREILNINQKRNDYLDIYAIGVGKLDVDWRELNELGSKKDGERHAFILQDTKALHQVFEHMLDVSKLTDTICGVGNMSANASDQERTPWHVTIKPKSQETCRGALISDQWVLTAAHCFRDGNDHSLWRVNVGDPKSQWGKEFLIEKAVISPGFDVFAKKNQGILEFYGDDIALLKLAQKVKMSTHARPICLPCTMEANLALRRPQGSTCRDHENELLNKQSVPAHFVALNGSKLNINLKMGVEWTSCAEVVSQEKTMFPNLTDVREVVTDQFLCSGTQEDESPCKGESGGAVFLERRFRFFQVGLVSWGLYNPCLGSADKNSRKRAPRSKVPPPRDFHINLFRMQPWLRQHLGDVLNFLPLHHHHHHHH

human C2 M452A = target: T2, human C2 M452A (human, UniProt P06681 21-752); experiment: SPR, KD relative to WT C2;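 note: biacore SPR at 37 °C, anti-C2 mAbs captured via immobilised goat anti-human IgG, C2 alanine or serine surface mutants as analytes, 1:1 model fitted, double-referenced sensograms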
T2 sequence: T1 sequence with M432A

human C2 H451A = target: T3, human C2 H451A (human, UniProt P06681 21-752); experiment: SPR, KD relative to WT C2;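 note: biacore SPR at 37 °C, anti-C2 mAbs captured via immobilised goat anti-human IgG, C2 alanine or serine surface mutants as analytes, 1:1 model fitted, double-referenced sensograms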
T3 sequence: T1 sequence with H431A

human C2 L279A = target: T4, human C2 L279A (human, UniProt P06681 21-752); experiment: SPR, KD relative to WT C2;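 note: biacore SPR at 37 °C, anti-C2 mAbs captured via immobilised goat anti-human IgG, C2 alanine or serine surface mutants as analytes, 1:1 model fitted, double-referenced sensograms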
T4 sequence: T1 sequence with L259A

B1: RF16-226 (antibody)
heavy: not shown
light: SYELTQPPSVSVSPGQTARITCSGDALTSKYVAWYQQKSGLAPLLVIYEDTRRPSGIPAKFSGSSSGSVATLTISGAHGDDEADYYCYSTDASGHQRVFGGGTKLTVLSQPKAAPSVTLFPPSSEELQANKATLVCLISDFYPGAVTVAWKADGSPVKAGVETTKPSKQSNNKYAASSYLSLTPEQWKSHRSYSCQVTHEGSTVEKTVAPTECS
- Kd (human complement C2): ~9 nM

B2: RF16-226 (antibody, human IgG4 S228P, lambda)
heavy: not shown
light: B1 light
notes: pH-dependent anti-C2 antibody from a phage display library; also called WT
- Fold diff (human C2 M452A): 0 fold
- Fold diff (human C2 H451A): 11 fold
- Fold diff (human C2 L279A): 5 fold
